Biological target: beta-NGF (nerve growth factor) (Homo sapiens) (UniProt P01138)
Test: cell_activity
Conditions: as SEQ30(6); 100 nM aptamer; parent 92.7%

Chain of beta-NGF (nerve growth factor) (Homo sapiens) (P01138 122-241): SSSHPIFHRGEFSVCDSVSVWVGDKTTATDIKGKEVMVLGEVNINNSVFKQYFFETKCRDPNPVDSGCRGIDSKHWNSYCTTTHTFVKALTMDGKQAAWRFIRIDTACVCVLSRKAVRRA

Q: How did the activity turn out when “GGGAUAAAAAUAGAGUUUGAUAAACACCUGUAUUAAAACCC [SEQ30(6) G20A]” was run?
A: 96.1 % inhibition

Q: “GGGAUAAAAAUAGAGUUUGAUAAACACCUGUAUUAAAACCC [SEQ30(6) G23A]” was tested. Which activity did it give?
A: 91.2 % inhibition

Reference: patent US20110251266
